Reference: patent US20050239064A1 (published 2005)

B1: entire intracellular domain of Drosophila Notch, expressed from pcDNA3 in 293T cells (receptor, UniProt P07207 1767-2703, looked up)
chain: QRKRAHGVTWFPEGFRAPAAVMSRRRRDPHGQEMRNLNKQVAMQSQGVGQPGAHWSDDESDMPLPKRQRSDPVSGVGLGNNGGYASDHTMVSEYEEADQRVWSQAHLDVVDVRAIMTPPAHQDGGKHDVDARGPCGLTPLMIAAVRGGGLDTGEDIENNEDSTAQVISDLLAQGAELNATMDKTGETSLHLAARFARADAAKRLLDAGADANCQDNTGRTPLHAAVAADAMGVFQILLRNRATNLNARMHDGTTPLILAARLAIEGMVEDLITADADINAADNSGKTALHWAAAVNNTEAVNILLMHHANRDAQDDKDETPLFLAAREGSYEACKALLDNFANREITDHMDRLPRDVASERLHHDIVRLLDEHVPRSPQMLSMTPQAMIGSPPPGQQQPQLITQPTVISAGNGGNNGNGNASGKQSNQTAKQKAAKKAKLIEGSPDNGLDATGSLRRKASSKKTSAASKKAANLNGLNPGQLTGGVSGVPGVPPTNSAAQAAAAAAAAVAAMSHELEGSPVGVGMGGNLPSPYDTSSMYSNAMAAPLANGNPNTGAKQPPSYEDCIKNAQSMQSLQGNGLDMIKLDNYAYSMGSPFQQELLNGQGLGMNGNGQRNGVGPGVLPGGLCGMGGLSGAGNGNSHEQGLSPPYSNQSPPHSVQSSLALSPHAYLGSPSPAKSRPSLPTSPTHIQAMRHATQQKQFGGSNLNSLLGGANGGGVVGGGGGGGGGVGQGPQNSPVSLGIISPTGSDMGIMLAPPQSSKNSAIMQTISPQQQQQQQQQQQQQHQQQQQQQQQQQQQQQQQLGGLEFGSAGLDLNGFCGSPDSFHSGQMNPPSIQSSMSGSSPSTNMLSPSSQHNQQAFYQYLTPSSQHSGGHTPQHLVQTLDSYPTPSPESPGHWSSSSPRSNSDWSEGVQSPAANNLYISGGHQANKGSEAIYI
notes: domain: entire intracellular domain; also called intracellular Notch
B2: Mip6 two-hybrid clone, amino-terminally truncated, fused to the E. coli B42 transactivation domain encoded by pJG4-5 (other, not shown: large carriers)
chain: PKTKQSTFVVSPKPEPKSPAVAFLQPSIPLRSSNQPQTVVGSSSTGRKPLNVGLTMEWTKKKFFSAASGIPQRRQNQIKQPYANIVSPIRTYTQKSGTAPLMSTFRPTSSDMLSTLAISELEQESRLCHPKALFATKDETPKSSEAESLIINGIDSAADLLPKKAYISSEIKHVVDERTPLPMPKVPQIQKYLNSAVEPTVMRHDGKMKMPGEAVRNPSSSHIPRRANHSLADLSLASGDVSLYTIRDAQKF

Key:
[1] = target: T1, Drosophila Mastermind (Mam) tagged at its amino terminus with the Flag epitope, expressed from pcDNA3 in 293T … (Drosophila, UniProt P21519 1-1594); assay: co-expression in 293T cells, indirect immunofluorescence
T1 construct: Expressed inside transfected human 293T cells
Text: Mastermind and the entire intracellular domain of Drosophila Notch were co-expressed from pcDNA3 vectors (obtained from Invitrogen, Carlsbad, Calif.). Intracellular Notch was visualized with the 9C6 monoclonal antibody (Rebay, 1983, Thesis, Yale University) and a Cy-2-conjugated goat anti-mouse IgG secondary antibody. Flag epitope-tagged Mam was visualized with an anti-Flag polyclonal antibody and a Cy-5-conjugated goat anti-rabbit secondary antibody. Nuclei were counterstained with DAPI. In the absence of Mam, intracellular Notch is homogeneously distributed throughout the nucleoplasm; however, when co-expressed with Mam, intracellular Notch accumulates in nuclear bodies.

[2] = target: T2, truncated Mam protein (carboxy-terminal 32 amino acids of full-length Drosophila Mastermind deleted) fused to … (Drosophila, UniProt P21519 1-1562); assay: yeast two-hybrid, lacZ reporter
T2 construct: also called truncated Mam fusion protein
Text: FIG. 13 is a graph showing Mam-Mip complex driven transcription in a two-hybrid analysis in yeast. The yeast strain EGY48 was co-transformed with a plasmid encoding a Mam-Gal4 DNA binding domain fusion protein and either a plasmid encoding Mip1, Mip30 or Mip6 fused to the E. coli B42 transactivation domain, or a control plasmid (pJG4-5). The DNA binding domain was derived from plasmid pEG202. […] In the presence of glucose, the expression of Mam is repressed and only a very low level of β-galactosidase activity is detected. In the presence of galactose, the expression of Mam is induced and a large increase in β-galactosidase activity is observed with those proteins that interact with Mam. Extracts were prepared and activity measured from equal number of cells.
To elucidate the function of Mam and its role in Notch signaling, proteins with which Mam interacts were identified. Complementary DNA encoding a truncated Mam protein, in which the carboxy-terminal 32 amino acids of full-length Mam were deleted, was fused to the Gal4 DNA-binding domain encoded by the yeast expression vector pEG202. A truncated Mam fusion protein was used because it elicited a lower autonomous transactivational response from yeast reporter genes than full-length Mam. […]

T2 sequence (P21519 other isoform, or with tags, fused parts or gaps limits assumed): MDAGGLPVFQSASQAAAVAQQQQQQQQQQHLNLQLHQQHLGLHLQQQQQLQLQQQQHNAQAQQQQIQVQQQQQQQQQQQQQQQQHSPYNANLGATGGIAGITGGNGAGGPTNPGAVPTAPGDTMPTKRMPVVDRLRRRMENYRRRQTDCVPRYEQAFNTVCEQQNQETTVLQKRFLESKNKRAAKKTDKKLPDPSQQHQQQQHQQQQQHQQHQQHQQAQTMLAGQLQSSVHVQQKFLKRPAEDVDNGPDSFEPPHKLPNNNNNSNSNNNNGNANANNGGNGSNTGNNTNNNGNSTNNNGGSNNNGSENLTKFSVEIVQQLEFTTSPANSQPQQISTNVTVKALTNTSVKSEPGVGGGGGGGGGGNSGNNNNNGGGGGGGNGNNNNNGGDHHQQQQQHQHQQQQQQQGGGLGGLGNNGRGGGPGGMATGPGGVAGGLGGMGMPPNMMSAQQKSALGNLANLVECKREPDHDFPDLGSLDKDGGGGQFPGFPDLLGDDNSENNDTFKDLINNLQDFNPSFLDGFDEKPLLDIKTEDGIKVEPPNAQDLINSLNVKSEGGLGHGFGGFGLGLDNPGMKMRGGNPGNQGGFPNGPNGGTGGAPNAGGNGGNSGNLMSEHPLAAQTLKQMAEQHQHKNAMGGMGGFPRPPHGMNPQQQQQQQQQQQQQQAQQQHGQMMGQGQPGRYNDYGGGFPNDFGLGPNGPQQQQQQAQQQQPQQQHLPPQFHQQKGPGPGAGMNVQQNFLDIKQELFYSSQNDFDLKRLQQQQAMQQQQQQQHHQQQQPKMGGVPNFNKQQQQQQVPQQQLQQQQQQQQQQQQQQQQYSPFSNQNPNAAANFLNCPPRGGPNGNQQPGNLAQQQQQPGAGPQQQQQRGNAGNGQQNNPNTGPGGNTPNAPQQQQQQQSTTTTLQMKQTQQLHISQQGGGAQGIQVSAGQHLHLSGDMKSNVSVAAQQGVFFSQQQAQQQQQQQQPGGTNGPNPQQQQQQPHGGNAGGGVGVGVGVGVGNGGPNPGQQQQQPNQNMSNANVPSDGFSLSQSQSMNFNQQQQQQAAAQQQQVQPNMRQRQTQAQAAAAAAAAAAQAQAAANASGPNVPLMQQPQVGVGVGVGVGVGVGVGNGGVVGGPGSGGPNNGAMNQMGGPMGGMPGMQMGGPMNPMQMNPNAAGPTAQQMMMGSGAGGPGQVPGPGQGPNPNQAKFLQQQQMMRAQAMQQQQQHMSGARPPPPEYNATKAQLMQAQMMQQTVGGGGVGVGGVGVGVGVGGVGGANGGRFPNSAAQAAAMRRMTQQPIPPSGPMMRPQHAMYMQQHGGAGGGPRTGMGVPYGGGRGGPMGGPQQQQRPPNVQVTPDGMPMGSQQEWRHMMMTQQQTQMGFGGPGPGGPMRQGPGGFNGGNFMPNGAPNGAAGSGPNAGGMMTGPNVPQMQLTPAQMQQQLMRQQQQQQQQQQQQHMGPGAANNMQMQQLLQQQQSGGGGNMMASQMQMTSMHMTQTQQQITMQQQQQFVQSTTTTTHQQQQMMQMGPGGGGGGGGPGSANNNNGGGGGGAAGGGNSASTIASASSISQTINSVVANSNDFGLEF
T1 sequence (P21519 other isoform, or with tags, fused parts or gaps): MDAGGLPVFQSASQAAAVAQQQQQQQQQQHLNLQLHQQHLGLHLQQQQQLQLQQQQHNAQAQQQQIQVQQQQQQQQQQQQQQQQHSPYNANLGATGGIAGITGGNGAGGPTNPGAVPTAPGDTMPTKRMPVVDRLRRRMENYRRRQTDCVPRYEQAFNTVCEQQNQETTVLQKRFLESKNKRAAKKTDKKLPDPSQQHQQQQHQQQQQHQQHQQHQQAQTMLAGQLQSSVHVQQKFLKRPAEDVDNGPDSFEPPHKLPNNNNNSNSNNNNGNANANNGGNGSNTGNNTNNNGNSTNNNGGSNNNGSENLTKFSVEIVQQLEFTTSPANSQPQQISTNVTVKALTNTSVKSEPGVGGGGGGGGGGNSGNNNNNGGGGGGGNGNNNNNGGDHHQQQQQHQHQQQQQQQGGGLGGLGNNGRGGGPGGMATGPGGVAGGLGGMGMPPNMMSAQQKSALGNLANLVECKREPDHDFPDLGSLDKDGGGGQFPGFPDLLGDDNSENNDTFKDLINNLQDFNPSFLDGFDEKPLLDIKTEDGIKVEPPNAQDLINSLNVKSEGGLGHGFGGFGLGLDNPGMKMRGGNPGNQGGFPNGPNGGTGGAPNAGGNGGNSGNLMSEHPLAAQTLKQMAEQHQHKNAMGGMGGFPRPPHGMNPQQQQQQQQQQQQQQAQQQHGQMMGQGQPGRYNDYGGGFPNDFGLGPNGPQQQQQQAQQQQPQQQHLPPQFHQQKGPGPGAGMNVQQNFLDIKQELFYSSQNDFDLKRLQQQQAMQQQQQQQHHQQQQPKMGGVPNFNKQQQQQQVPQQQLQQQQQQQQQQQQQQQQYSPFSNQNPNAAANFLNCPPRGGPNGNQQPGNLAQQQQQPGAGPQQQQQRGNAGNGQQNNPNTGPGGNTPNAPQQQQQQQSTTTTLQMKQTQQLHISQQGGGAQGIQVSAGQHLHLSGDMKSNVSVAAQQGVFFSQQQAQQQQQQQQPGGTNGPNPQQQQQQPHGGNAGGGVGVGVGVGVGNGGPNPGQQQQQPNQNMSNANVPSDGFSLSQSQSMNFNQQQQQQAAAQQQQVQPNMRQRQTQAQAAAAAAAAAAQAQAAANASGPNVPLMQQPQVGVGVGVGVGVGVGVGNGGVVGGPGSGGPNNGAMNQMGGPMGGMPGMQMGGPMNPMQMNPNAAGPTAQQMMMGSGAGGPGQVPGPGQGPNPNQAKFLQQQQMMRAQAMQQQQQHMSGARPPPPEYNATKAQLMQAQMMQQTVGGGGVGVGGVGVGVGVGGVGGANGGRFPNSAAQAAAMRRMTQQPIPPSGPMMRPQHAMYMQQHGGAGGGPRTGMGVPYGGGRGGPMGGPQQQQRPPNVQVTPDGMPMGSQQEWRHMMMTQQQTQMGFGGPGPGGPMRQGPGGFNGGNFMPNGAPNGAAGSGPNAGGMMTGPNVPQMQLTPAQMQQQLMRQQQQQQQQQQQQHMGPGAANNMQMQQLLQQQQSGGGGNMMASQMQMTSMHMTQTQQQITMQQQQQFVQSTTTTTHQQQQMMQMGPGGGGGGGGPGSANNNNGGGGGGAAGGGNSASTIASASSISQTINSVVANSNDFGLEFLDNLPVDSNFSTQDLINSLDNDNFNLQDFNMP

| Binder | binding result [1] | binding result [2] |
| --- | --- | --- |
| B1 | binds |  |
| B2 |  | binds |
